Laboratory results as given in the supplement of paper PMC6757056.
± gives the standard deviation of the averaged measurements.

B1: library; a variant is named by its letters at N, in order (parent)
chain: GCUGUCACCGAGAAACUGUGAAGUAUAUCUUAAACCUGGGCACUUAAAAGAUAUAUGGAGUUAGUAGUGCAACCUGCUCGGUCUGAUGAGUCCNNNNNNGGACGAAACAGC

How the values were obtained:
cyclic di-GMP [1] = variants of: B1; assay: normalized RNA/DNA level without ligand (relative to sTRSVctl = 100) (log10 (% of sTRSVctl)); HEK293T; ligand: cyclic di-GMP (c-di-GMP-II aptamer); higher = less ribozyme self-cleavage, higher mRNA level; settings: reporter: mCherry (pCS4076), ligand present: no
How it was run: (§1)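 Library plasmids carrying ribozyme switches linked to mCherry, or to eGFP in some ligand experiments, were transfected into HEK293T at 4 µg per 6-well well, with any ligand added 1 h earlier. Seventy-two hours on, total RNA was extracted with EDTA and reverse-transcribed, amplified, barcoded and sequenced. RNA level was RNA over DNA reads normalized to a spiked-in non-cleaving sequence or to the top sequences, then scaled and log-transformed. The top set was 25 sequences, the transform was ×100 and log10, and sequences needed ≥100 DNA reads.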

cyclic di-GMP [2] = variants of: B1; assay: normalized RNA/DNA level with ligand (relative to sTRSVctl = 100) (log10 (% of sTRSVctl)); HEK293T; ligand: cyclic di-GMP (c-di-GMP-II aptamer); ligand concentration (+) RNA-Seq: 1 mM; higher = less ribozyme self-cleavage, higher mRNA level; settings: reporter: mCherry (pCS4076), ligand present: yes
How it was run: as §1

cyclic di-GMP [3] = variants of: B1; assay: FACS-Seq fitted mean relative fluorescence mCherry/BFP without ligand (log10 relative fluorescence); HEK293T; ligand: cyclic di-GMP (c-di-GMP-II aptamer); higher = higher reporter protein expression; settings: ligand present: no
How it was run: (§2)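 The ribozyme switch sat in an mCherry reporter, delivered by lentivirus into HEK293T libraries along with an EF1α-BFP marker. Enriched cells were incubated 48 h with or without ligand, sorted into 6 bins by mCherry/BFP, and bin genomic DNA was PCR-amplified, barcoded and MiSeq-sequenced. Fluorescence equals the fitted normal mean of the bin counts after normalization. Those log10(mCherry/BFP) means were scaled to five spiked-in control ribozymes.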

cyclic di-GMP [4] = variants of: B1; assay: FACS-Seq fitted mean relative fluorescence mCherry/BFP with ligand (log10 relative fluorescence); HEK293T; ligand: cyclic di-GMP (c-di-GMP-II aptamer); ligand concentration (+) FACS-Seq: 1 mM; higher = higher reporter protein expression; settings: ligand present: yes
How it was run: as §2

| Variant | normalized RNA/DNA level without ligand (log10) (cyclic di-GMP [1]) | normalized RNA/DNA level with ligand (log10) (cyclic di-GMP [2]) | FACS-Seq fitted mean (log10) (cyclic di-GMP [3]) | FACS-Seq fitted mean (log10) (cyclic di-GMP [4]) |
| --- | --- | --- | --- | --- |
| AACACG | 1.55 ± 0.073 | 1.74 ± 0.088 | – | – |
| AUCUUA | 1.61 ± 0.037 | 1.76 ± 0.12 | – | – |
| UAUCGG | 1.743 ± 0.0093 | 1.84 ± 0.11 | – | – |
| CCCUCC | 1.78 ± 0.029 | 1.89 ± 0.045 | -0.844 ± 0.018 | -0.75619 ± 0.00069 |
| CUAAGA | 1.53 ± 0.068 | 1.72 ± 0.079 | – | – |
| AGAUGA | 1.4 ± 0.13 | 1.61 ± 0.14 | -0.545 ± 0.04 | -0.336 ± 0.063 |
| GACGCA | 1.77 ± 0.055 | 1.88 ± 0.085 | – | – |
| GACUCU | 1.704 ± 0.005 | 1.84 ± 0.12 | – | – |
| UAGAUG | 1.53 ± 0.057 | 1.75 ± 0.089 | 0.0515 ± 0.09 | 0.322 ± 0.085 |
| UUGGUG | 1.6 ± 0.1 | 1.78 ± 0.11 | – | – |
| GUAGUC | 1.37 ± 0.12 | 1.55 ± 0.054 | – | – |
| AAUGCG | 1.704 ± 0.0078 | 1.82 ± 0.15 | – | – |
| GGUUCA | 1.6 ± 0.043 | 1.73 ± 0.12 | – | – |
| AAAGAA | 1.34 ± 0.14 | 1.55 ± 0.1 | – | – |
| UGUUAG | 1.74 ± 0.03 | 1.86 ± 0.14 | – | – |
| AAACGC | 1.67 ± 0.027 | 1.85 ± 0.082 | – | – |
| CCGAAG | 1.31 ± 0.081 | 1.51 ± 0.12 | -0.589 ± 0.031 | -0.24 ± 0.0033 |
| UGGCUG | 1.836 ± 0.013 | 1.9 ± 0.095 | – | – |
| UGAUCG | 1.77 ± 0.053 | 1.84 ± 0.15 | – | – |
| CGCUUC | 1.62 ± 0.051 | 1.81 ± 0.081 | – | – |
| UUUACA | 1.73 ± 0.037 | 1.85 ± 0.1 | – | – |
| GCAUCA | 1.61 ± 0.11 | 1.77 ± 0.12 | – | – |
| UAGCUA | 1.71 ± 0.038 | 1.82 ± 0.12 | – | – |
| CCCGCU | 1.74 ± 0.024 | 1.88 ± 0.11 | – | – |
| AUCGCG | 1.75 ± 0.035 | 1.84 ± 0.054 | – | – |

| Variant | normalized RNA/DNA level without ligand (log10) (cyclic di-GMP [1]) | normalized RNA/DNA level with ligand (log10) (cyclic di-GMP [2]) | FACS-Seq fitted mean (log10) (cyclic di-GMP [3]) | FACS-Seq fitted mean (log10) (cyclic di-GMP [4]) |
| --- | --- | --- | --- | --- |
| UACACA | 1.7 ± 0.041 | 1.84 ± 0.083 | – | – |
| GGGACC | 1.84 ± 0.063 | 1.9 ± 0.15 | – | – |
| AUAUUC | 1.707 ± 0.0056 | 1.84 ± 0.12 | – | – |
| CGAUCG | 1.8 ± 0.04 | 1.87 ± 0.1 | – | – |
| UUUCGG | 1.8 ± 0.066 | 1.93 ± 0.12 | – | – |
| CACGAA | 1.33 ± 0.14 | 1.53 ± 0.094 | -0.353 ± 0.036 | -0.00961 ± 0.027 |
| UAUAUG | 1.71 ± 0.044 | 1.84 ± 0.12 | – | – |
| AAUAGU | 1.6 ± 0.034 | 1.74 ± 0.11 | -0.33379 ± 0.00027 | 0.0812 ± 0.061 |
| UAUUAC | 1.77 ± 0.039 | 1.87 ± 0.095 | -0.992 ± 0.17 | -0.849 ± 0.071 |
| UAUUAG | 1.73 ± 0.042 | 1.87 ± 0.068 | – | – |
| CGCAGU | 1.679 ± 0.005 | 1.82 ± 0.092 | – | – |
| CGUGUG | 1.678 ± 0.0082 | 1.8 ± 0.092 | – | – |
| AUAACG | 1.58 ± 0.027 | 1.76 ± 0.12 | -0.0695 ± 0.081 | 0.0722 ± 0.12 |
| ACCUCC | 1.78 ± 0.055 | 1.86 ± 0.15 | 0.0782 ± 0.15 | 0.281 ± 0.037 |
| CAAGUU | 1.71 ± 0.027 | 1.86 ± 0.12 | -0.164 ± 0.058 | 0.078 ± 0.065 |
| GUCUGU | 1.66 ± 0.044 | 1.81 ± 0.069 | -0.165 ± 0.035 | 0.0419 ± 0.17 |
| GUGCGC | 1.74 ± 0.057 | 1.88 ± 0.056 | – | – |
| GUGCGG | 1.86 ± 0.043 | 1.92 ± 0.08 | – | – |
| CCGAGC | 1.78 ± 0.059 | 1.88 ± 0.14 | -0.204 ± 0.022 | 0.0994 ± 0.021 |
| CCGAGU | 1.63 ± 0.025 | 1.8 ± 0.13 | – | – |
| CCUUAC | 1.71 ± 0.0031 | 1.83 ± 0.12 | – | – |
| GUCUAC | 1.739 ± 0.0096 | 1.89 ± 0.14 | – | – |
| UCAAUC | 1.63 ± 0.01 | 1.8 ± 0.12 | – | – |
| UCAGGU | 1.58 ± 0.12 | 1.76 ± 0.12 | – | – |
| UAAAGC | 1.676 ± 0.0024 | 1.82 ± 0.1 | – | – |
